From the supplement of paper PMC9233669
Variants at the floor of the assay were thinned out.

What was measured:
biotinyl-Trp-oxazolone = assay: self-aminoacylation, catalytic enhancement (BWO) (fold over background); higher = more active; k-Seq, kA / k0A0; sequences stand for … in GGGAAUGGAUCCACAUCUACGAAUUC…UUCACUGCAGACUUGACGAAGCUG
Procedure, shortened: (§1)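 Catalytic enhancement equals the median kA over the uncatalyzed rate, the latter read from the low-activity peak of a bimodal Gaussian fit. Values of kA came from fitting each sequence's fraction reacted to a pseudo-first-order model, with 1000 bootstraps. Reacted RNA was captured with streptavidin and quantified by triplicate qPCR and Illumina sequencing after 90 minutes at room temperature with 2–1250 μM biotinyl-aminoacyl-oxazolone and 0.43 μM mutagenized RNA pools bearing a 21-nt variable region.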

biotinyl-Phe-oxazolone = assay: self-aminoacylation, catalytic enhancement (BFO) (fold over background); higher = more active; k-Seq, kA / k0A0; sequences stand for … in GGGAAUGGAUCCACAUCUACGAAUUC…UUCACUGCAGACUUGACGAAGCUG
Procedure, shortened: as §1

| Sequence | self-aminoacylation (biotinyl-Trp-oxazolone) | self-aminoacylation (biotinyl-Phe-oxazolone) |
| --- | --- | --- |
| CUUCACCUAGGUCAUCGGGUC [Fam2.2 aminoacylation ribozyme variant] | 2.29 | 3.47 |
| CUACUUCAAGAAAUCGGUCUG [Fam1A.1 aminoacylation ribozyme variant] | 3.05 | 4.36 |
| CAACUUCAAACAAUCGGUCUA [Fam1A.1 aminoacylation ribozyme variant] | 13.9 | 26.4 |
| CUACUUCAAGCAAUCGGUCUG [Fam1A.1 aminoacylation ribozyme variant] | 7.74 | 13.6 |
| CCACACUUCAAGCAAUCAGUC [Fam1B.1 aminoacylation ribozyme variant] | 6.45 | 21.5 |
| CCCCACUUCAUGCAAUCGGUC [Fam1B.1 aminoacylation ribozyme variant] | 2.78 | 2.57 |
| CUACCUCAAACAAUCGGUCUG [Fam1A.1 aminoacylation ribozyme variant] | 2.19 | 3.14 |
| AAGUUUGCAAAUAGUCGCCAG [Fam3.1 aminoacylation ribozyme variant] | 2.05 | 2.38 |
| CUACUUCAGACAAUCGGCCUG [Fam1A.1 aminoacylation ribozyme variant] | 2.23 | 3.82 |
| GUACUUCAAAUAAUCGGUCUG [Fam1A.1 aminoacylation ribozyme variant] | 10.7 | 10.4 |
| AAUUUUGCUAAUAGUCGCAAG [Fam3.1 aminoacylation ribozyme variant] | 2.43 | 5 |
| CAGUUUGCUAAUAGUCGUAAG [Fam3.1 aminoacylation ribozyme variant] | 2.28 | 5.91 |
| CUACUUCAAAAAAUCGGUCUC [Fam1A.1 aminoacylation ribozyme variant] | 5.93 | 8.87 |
| CCACACUUCAAUAAAUCGGUC [Fam1B.1 aminoacylation ribozyme variant] | 6.22 | 11.7 |
| AUUAGCCUGGUCGUCGAGUGA [Fam2.1 aminoacylation ribozyme variant] | 2.09 | 7.67 |
| CUACUUCAAAGAAUCGGUCUC [Fam1A.1 aminoacylation ribozyme variant] | 3.26 | 4.32 |
| AGGUUUGCUAAUAGUCACAAG [Fam3.1 aminoacylation ribozyme variant] | 2.76 | 9.69 |
| CGACUUCAAAAAAUCGGUCUG [Fam1A.1 aminoacylation ribozyme variant] | 14 | 15.3 |
| CUACUUCAAACAAUCGGAAUG [Fam1A.1 aminoacylation ribozyme variant] | 4.46 | 7.74 |
| UAAUUUGCUAAUAGUCGCAAG [Fam3.1 aminoacylation ribozyme variant] | 2.01 | 2.21 |
| CUUCUUCAAACAAUCGGUGUG [Fam1A.1 aminoacylation ribozyme variant] | 2.46 | 4.48 |

| Sequence | self-aminoacylation (biotinyl-Trp-oxazolone) | self-aminoacylation (biotinyl-Phe-oxazolone) |
| --- | --- | --- |
| CUGCCUCAAACAAUCGGUCUG [Fam1A.1 aminoacylation ribozyme variant] | 20.9 | 34.5 |
| UCACUCUUCAAGCAAUCGGUC [Fam1B.1 aminoacylation ribozyme variant] | 12.7 | 27 |
| UAGUUUGCUAAUAGUCGCAAG [Fam3.1 aminoacylation ribozyme variant] | 3.18 | 9.38 |
| AAGUUUGCUAUUAGUCGCGAG [Fam3.1 aminoacylation ribozyme variant] | 2.3 | 4.31 |
| GUACUUCAAACAAUCGGACUG [Fam1A.1 aminoacylation ribozyme variant] | 5.26 | 5.92 |
| AUUACCCUGGCCAUCGAGUAA [Fam2.1 aminoacylation ribozyme variant] | 2.74 | 3.72 |
| AUACUUCAACCAAUCGGUCUG [Fam1A.1 aminoacylation ribozyme variant] | 4.18 | 5.09 |
| UUAGUUCAAACAAUCGGUCUG [Fam1A.1 aminoacylation ribozyme variant] | 2.94 | 4.01 |
| CUACUUCAACCAAUCGGUGUG [Fam1A.1 aminoacylation ribozyme variant] | 4.66 | 4.96 |
| AAGUAUGCUAAUAGUCACAAG [Fam3.1 aminoacylation ribozyme variant] | 3.36 | 9.66 |
| AAUUUUGCGAAUAGUCGCAAG [Fam3.1 aminoacylation ribozyme variant] | 2 |  |
| UCACCCUUCAAGCAAUCGGUC [Fam1B.1 aminoacylation ribozyme variant] | 6.03 | 10.5 |
| CUACUUCAAACAAUCAGACUG [Fam1A.1 aminoacylation ribozyme variant] | 2.98 | 8.24 |
| AAUACCCUGGUCAUCGAGUGC [Fam2.1 aminoacylation ribozyme variant] | 2.03 | 3.36 |
| CCACUUCAAACAAUCGCUCUG [Fam1A.1 aminoacylation ribozyme variant] | 2.69 | 3.32 |
| ACACACUUCAAGGAAUCGGUC [Fam1B.1 aminoacylation ribozyme variant] | 2.96 | 3.08 |
| AAGUUGGCUAAUAGUCGCGAG [Fam3.1 aminoacylation ribozyme variant] | 3.96 |  |
| CAACUUCAAACAAUCGCUCUG [Fam1A.1 aminoacylation ribozyme variant] | 2.41 | 3.06 |
| AAGUGUGCUAAUAGUCACAAG [Fam3.1 aminoacylation ribozyme variant] | 3.91 | 6.87 |
| AUACUUCAAACAAUCGGUCUU [Fam1A.1 aminoacylation ribozyme variant] | 4.01 | 6.84 |
| CUCCUUCAAACAAUCGGUCCG [Fam1A.1 aminoacylation ribozyme variant] | 6.67 | 6.9 |

| Sequence | self-aminoacylation (biotinyl-Trp-oxazolone) | self-aminoacylation (biotinyl-Phe-oxazolone) |
| --- | --- | --- |
| CGACACUUCAAGCAAUCGGUC [Fam1B.1 aminoacylation ribozyme variant] | 7.38 | 13.4 |
| CUACCCUUCAAGCAAUCGGUC [Fam1B.1 aminoacylation ribozyme variant] | 5.52 | 8.35 |
| CCACACUUCAAACGAUCGGUC [Fam1B.1 aminoacylation ribozyme variant] | 4.08 | 3.66 |
| CCACACUUCAAGUAAUCGGCC [Fam1B.1 aminoacylation ribozyme variant] | 4.17 | 3.03 |
| CUUCUUCAAAUAAUCGGUCUG [Fam1A.1 aminoacylation ribozyme variant] | 7.57 | 10.7 |
| CUACUUCAAAAAAUCGGUCGG [Fam1A.1 aminoacylation ribozyme variant] | 5.6 | 4.54 |
| CUCCUUCAAACAAUCGGUCAG [Fam1A.1 aminoacylation ribozyme variant] | 7.87 | 14 |
| AAGUUUACUAAUUGUCGCAAG [Fam3.1 aminoacylation ribozyme variant] | 2 | 2.6 |
| CCACACGUCAAGCAAUCGGCC [Fam1B.1 aminoacylation ribozyme variant] | 2 | 3.91 |
| CUACUUCAAAUAAUCGGUCUU [Fam1A.1 aminoacylation ribozyme variant] | 5.86 | 9.54 |
| CCACACUUCAAGAAAUCGGUC [Fam1B.1 aminoacylation ribozyme variant] | 6.66 | 10.8 |
| ACACAGUUCAAGCAAUCGGUC [Fam1B.1 aminoacylation ribozyme variant] | 3.46 | 3.76 |
| AUAGUUCAAACAAUCGGUCUG [Fam1A.1 aminoacylation ribozyme variant] | 3.06 | 4.05 |
| CUGCUUCAAACAAUCGAUCUG [Fam1A.1 aminoacylation ribozyme variant] | 2.77 | 7.44 |
| CCACAUUUCAACCAAUCGGUC [Fam1B.1 aminoacylation ribozyme variant] | 5.58 | 7.78 |
| CCACUCUUCAAUCAAUCGGUC [Fam1B.1 aminoacylation ribozyme variant] | 20.3 | 33.5 |
| CUACGUGAAACAAUCGGUCUG [Fam1A.1 aminoacylation ribozyme variant] | 2.03 | 5.84 |
| AAGUUUGCUAACAGUCGUAAG [Fam3.1 aminoacylation ribozyme variant] | 7.81 | 27.2 |
| CCACACUUCAAGAAAUCGGUU [Fam1B.1 aminoacylation ribozyme variant] | 2.03 |  |
| GUACGUCAAACAAUCGGUCUG [Fam1A.1 aminoacylation ribozyme variant] | 2.71 |  |
